# ± gives the uncertainty stated by the source.
# Assay: protein stability index of a GFP-peptide fusion (yeast GPS) (PSI 1-4); higher = more stable; sorted into four equal gates, so the index is relative within each strain
# Method in brief: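 The protein stability index of a peptide was calculated by multiplying its read frequency in each gate by that gate's number and adding the products. The peptides were tiled 17-residue stretches of yeast proteins, fused downstream of GFP on a Cherry-expressing plasmid and carried in yeast as a pooled library. Mid-log cultures in leucine-free medium were sorted into four equal gates by GFP/Cherry ratio, and each gate's plasmids were PCR-amplified and Illumina-sequenced.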
Sequence,protein stability index (doa10∆),protein stability index (pdr5∆),protein stability index (san1∆),protein stability index (ubr1∆)
CITKQDGFKIYDNEKTA [PUP2],2.85 ± 0.1,3.06 ± 0.063,3.1 ± 0.05,2.82 ± 0.095
CKQFPKLSCIQLNCIDT [SRB8],1.54 ± 0.041,1.95 ± 0.039,1.52 ± 0.043,1.66 ± 0.026
CLFTKCLEDPEKPFNEN [POP4],2.67 ± 0.15,3.02 ± 0.15,2.7 ± 0.2,2.96 ± 0.079
CLNTQRGDSTETSSFGS [RRI1],3.61 ± 0.14,3.25 ± 0.17,3.37 ± 0.084,3.56 ± 0.17
CLTGTVAARMFHILLKL [ECM29],2.42 ± 0.093,2.03 ± 0.096,2.74 ± 0.058,2.44 ± 0.069
CLTKFQDEEQTEHLTEL [YCG1],3.33 ± 0.13,3 ± 0.15,3.46 ± 0.075,2.85 ± 0.11
CNALIHIKFSAGTEANA [SRB4],1.96 ± 0.05,2.31 ± 0.039,2.19 ± 0.054,2.33 ± 0.034
CNQMENLLESITKLLEI [YCS4],3.19 ± 0.083,2.8 ± 0.054,2.9 ± 0.061,2.96 ± 0.059
CRNILGVTSLIKNLGLP [RPP1],1.81 ± 0.054,1.58 ± 0.051,1.23 ± 0.092,1.75 ± 0.045
CRRMILTHVDLIEKFLR [RPB10],2.85 ± 0.21,1.46 ± 0.11,,2.04 ± 0.099
CSIEPIAAKLINSGLYS [YML103C/NUP188],1.77 ± 0.066,1.29 ± 0.065,1.67 ± 0.12,1.19 ± 0.062
CTFSMEPYHFISNYNTK [SRB8],1.99 ± 0.083,2.09 ± 0.05,1.5 ± 0.079,1.71 ± 0.052
DADKLSFNCENFFQAPQ [YML031W/NDC1],2.37 ± 0.08,2.15 ± 0.058,2.36 ± 0.06,2.3 ± 0.058
DAFVATAFATEFFVQVL [DLS1],2.98 ± 0.089,3.03 ± 0.089,3.12 ± 0.077,3.09 ± 0.072
DAIQAGIWNDLGSGSNV [PUP1],2.71 ± 0.26,,,
DAMVTRTPVIISLRNNH [SMD2],1.61 ± 0.058,1.85 ± 0.056,1.43 ± 0.12,1.7 ± 0.073
DANLLGAEVLIKGSKLS [COR1],2.94 ± 0.072,2.85 ± 0.079,2.63 ± 0.12,2.63 ± 0.042
DATNTSYKMIQLDAYGE [SWP82],3.29 ± 0.087,3.39 ± 0.077,3.25 ± 0.057,3.16 ± 0.05
DAWVSAAHYNRERIKRG [PRP8],2.76 ± 0.13,1.81 ± 0.099,2.6 ± 0.062,1.96 ± 0.15
DCLSFAPTLSQTYINQE [SSN2],2.69 ± 0.074,2.76 ± 0.081,2.77 ± 0.087,2.91 ± 0.048
DCMIAHGAASFLKERLM [RPB2],3.03 ± 0.088,2.54 ± 0.068,2.13 ± 0.1,2.09 ± 0.066
DCNSALDQLLVLEKKTR [RPN5],2.31 ± 0.068,2.31 ± 0.1,2.22 ± 0.058,2.44 ± 0.083
DDDDDDDDEVDYSEIQR [DSN1],2.98 ± 0.067,3.49 ± 0.087,3.41 ± 0.044,3.16 ± 0.084
DDDINWQELARSTDEFN [RPT5],3.18 ± 0.064,3.21 ± 0.065,3.11 ± 0.048,3.2 ± 0.043
DDDISDDEEDEIEENCL [RPN4],3.48 ± 0.1,3.27 ± 0.089,3.14 ± 0.08,3.32 ± 0.1
DDDTFSDREMAALIASK [RPN2],1.6 ± 0.079,1.55 ± 0.056,1.32 ± 0.12,1.79 ± 0.063
DDETPSCEVEEIGLLGG [SNU114],3.13 ± 0.11,3.35 ± 0.084,3.26 ± 0.07,3.14 ± 0.065

Sequence,protein stability index (doa10∆),protein stability index (pdr5∆),protein stability index (san1∆),protein stability index (ubr1∆)
DDHSQVINPQQLLKGLS [DSN1],3.17 ± 0.1,2.98 ± 0.084,3.03 ± 0.057,3.01 ± 0.068
DDKVSVVEKEKIESLAG [UBP6],3.31 ± 0.2,2.84 ± 0.24,2.89 ± 0.17,3.37 ± 0.14
DDKYGRKFALEKLYIFY [SRP72],2.71 ± 0.076,2.82 ± 0.081,2.4 ± 0.061,2.4 ± 0.055
DDLKQKKEELVEIAYHK [RPO31],3.18 ± 0.16,3.13 ± 0.072,3.08 ± 0.14,3.08 ± 0.082
DDNDVPGPLPDTDSKPS [YLR018C/POM34],2.9 ± 0.12,2.98 ± 0.084,2.76 ± 0.11,2.38 ± 0.13
DDQCMLITTYSKLSKNI [SIN4],1.97 ± 0.065,2.42 ± 0.076,1.87 ± 0.2,2.01 ± 0.038
DDSANIVNVNFMKSVIR [DIS3],2.92 ± 0.051,3.1 ± 0.06,3.06 ± 0.069,3.03 ± 0.044
DDSTKFQLVNDVMDELI [SIR3],3.29 ± 0.15,3.37 ± 0.15,3.47 ± 0.1,3.39 ± 0.086
DDTWYNLTEFVQMDKIR [AAR2],2.82 ± 0.11,2.88 ± 0.081,2.79 ± 0.061,2.83 ± 0.084
DEANIEIDPLTGMPISN [BRN1],,2.65 ± 0.25,,2.42 ± 0.27
DEATVPNTRDAESEAIT [SWI3],3.09 ± 0.077,3.15 ± 0.06,3.18 ± 0.066,3.23 ± 0.052
DEDDDLDEDDVNADDDD [RPB4],3.12 ± 0.1,3.13 ± 0.086,2.09 ± 0.16,3 ± 0.11
DEDESQNIAQSSNQSAP [HRT1],2.99 ± 0.07,3.15 ± 0.074,3.14 ± 0.051,3.19 ± 0.043
DEEGIFSRFVDQFIRHV [YCG1],2.98 ± 0.16,2.79 ± 0.13,2.99 ± 0.085,2.93 ± 0.06
DEGLLNMVSLRGRNDTL [GRR1],2.55 ± 0.15,2.49 ± 0.14,2.51 ± 0.097,2.83 ± 0.17
DEIYIPINGNEAESQWY [CSI1],2.63 ± 0.065,3.13 ± 0.06,3.11 ± 0.07,3.31 ± 0.064
DEKNKNNNEDNENNNNS [MED2],3.11 ± 0.084,3.39 ± 0.069,3.17 ± 0.062,3.28 ± 0.064
DELILPLPSHALTVQEV [YDL116W/NUP84],2.4 ± 0.038,2.56 ± 0.036,2.15 ± 0.057,2.44 ± 0.025
DELMVIYISNLVRSIIA [RPN8],2.44 ± 0.28,3.22 ± 0.17,,3.24 ± 0.11
DESYARAYRIIRAHQTE [QCR7],3.17 ± 0.17,3.43 ± 0.17,3.14 ± 0.22,3.41 ± 0.091
DETKGFDDNDSGNNYND [MED2],3.1 ± 0.055,3.07 ± 0.058,3.13 ± 0.053,3.1 ± 0.048
DEYQAAVEQRKKEKLDS [DPB4],3.47 ± 0.13,3.34 ± 0.14,3.38 ± 0.11,3.39 ± 0.095
DFDGDEMNLHVPQSEET [RPO21],3.04 ± 0.083,3.12 ± 0.063,2.98 ± 0.045,3.23 ± 0.074
DFISPELIIDKVTCSSN [MED1],1.69 ± 0.1,1.75 ± 0.099,1.82 ± 0.22,1.37 ± 0.09
DFLRYINIKYLRLDGHT [SNF2],2.5 ± 0.071,1.32 ± 0.062,1.4 ± 0.14,1.65 ± 0.06
DFVRNELNDIDTKIDQV [SMC3],3.19 ± 0.15,3.31 ± 0.11,3.12 ± 0.14,3.29 ± 0.13

# — the supplement of paper PMC9732359
